Assay results: patent US20150037340A1 (PEIRRE FABRE MEDICAMENT, published 2015)

Columns and labels:
[1] = target: T1, recombinant human Axl-Fc (R and D Systems, cat No 154-AL / 154AL/CF) (human, UniProt P30530 26-451); experiment: competition ELISA: rhAxl-Fc pre-incubated with the antibody, loaded on coated rhGas6 (blocked ligand), bound rhAxl-Fc detected with anti-human IgG-HRP
T1 construct: Bought protein; also called rhAxl-Fc; rh Axl-Fc protein; not shown: human IgG Fc portion (detected with anti-human IgG Fc)
T1 sequence: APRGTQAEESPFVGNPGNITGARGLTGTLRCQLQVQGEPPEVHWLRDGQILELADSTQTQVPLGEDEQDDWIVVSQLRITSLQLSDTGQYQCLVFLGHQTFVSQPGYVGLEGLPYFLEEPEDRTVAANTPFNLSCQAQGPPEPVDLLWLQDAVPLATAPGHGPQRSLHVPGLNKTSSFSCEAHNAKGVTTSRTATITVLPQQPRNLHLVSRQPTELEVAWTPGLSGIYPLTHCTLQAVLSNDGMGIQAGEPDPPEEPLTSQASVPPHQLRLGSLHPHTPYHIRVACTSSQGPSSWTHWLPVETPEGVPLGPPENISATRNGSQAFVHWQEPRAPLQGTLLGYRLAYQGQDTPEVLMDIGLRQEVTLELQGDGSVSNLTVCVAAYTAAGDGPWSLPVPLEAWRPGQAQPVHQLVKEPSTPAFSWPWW
Procedure: To further characterize the 1613F12, Gas6 competition assays were performed. In this assay, the free rhAxl-Fc protein and the 1613F12 are incubated to form antigen-antibody complex and then the complexes are loaded on Gas6-coated surface in the assay plate. The unbound antibody-antigen complexes are washed out before adding enzyme-linked secondary antibody against the human Fc portion of the rhAxl-Fc protein. The substrate is then added and the antigen concentration can be determined by the signal strength elicited by the enzyme-substrate reaction.
Briefly reaction mixture comprising the rhAxl-Fc protein in the presence or not of the anti-Axl Mabs to be tested, are prepared on a separate saturated (0.5% gelatin in PBS 1×) plate. Serial 1: 2 dilutions (starting from 80 μg/ml on 12 columns) of murine anti-Axl antibodies are performed. […] After homogenisation, the competition samples are loaded on Gas6-coated plates with a 6 μg/m rhGas6 solution in PBS (R and D Systems cat No 885-GS-CS/CF). After incubation and several washes, bound rhAxl-Fc proteins are detected using a goat anti-Human IgG-HRP (Jackson, ref. 109-035-098). Once bound, the TMB substrate is added to the plates. The reaction is stopped by addition of 1M H₂SO₄ acid solution and the obtained optical densities read at 450 nm using a microplate reader instrument.

[2] = target: T2, recombinant mouse Axl-Fc (R and D systems, cat No 854-AX/CF) (mouse, UniProt Q00993 19-445); experiment: ELISA on coated rmAxl-Fc, detection with goat anti-mouse IgG-HRP
T2 construct: extracellular domain; Bought protein; also called rmAxl-Fc; murine Axl ECD domain; not shown: Fc portion (coating control with anti-human IgG Fc)
T2 sequence (looked up): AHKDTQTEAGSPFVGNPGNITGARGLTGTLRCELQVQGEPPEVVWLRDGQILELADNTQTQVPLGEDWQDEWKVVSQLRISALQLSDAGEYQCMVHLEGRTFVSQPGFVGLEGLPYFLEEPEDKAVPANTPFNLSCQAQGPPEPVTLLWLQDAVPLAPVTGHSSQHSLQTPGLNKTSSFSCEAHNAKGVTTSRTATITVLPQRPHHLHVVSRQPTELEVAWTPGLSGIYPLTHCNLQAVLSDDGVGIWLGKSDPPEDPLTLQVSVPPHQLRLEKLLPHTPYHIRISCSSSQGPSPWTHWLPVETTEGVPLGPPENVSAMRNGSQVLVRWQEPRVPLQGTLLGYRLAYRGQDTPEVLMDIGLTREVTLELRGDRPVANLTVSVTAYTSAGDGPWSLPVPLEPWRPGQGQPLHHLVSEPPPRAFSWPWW
Procedure: Briefly, the recombinant mouse Axl-Fc (R and D systems, cat No 854-AX/CF) proteins were coated overnight at 4° C. to Immulon II 96-well plates and, after a 1 h blocking step with a 0.5% gelatine solution, the 1613F12 purified antibody was added for one additional hour at 37° C. at starting concentration of 5 μg/m (3.33 10⁻⁸M). Then ½ serial dilutions were done over 12 columns. Plates were then washed and a goat anti-mouse (Jackson) specific IgG HRP was added for 1 h at 37° C. Reaction development was performed using the TMB substrate solution. […] Coating controls are performed in presence of a goat anti-human IgG Fc polyclonal serum coupled with HRP (Jackson, ref 109-035-098) and/or in presence of a HRP-coupled anti-Histidine antibody (R and D Systems, ref: MAB050H).

B1: 1613F12 antibody (murine form) (antibody, V domains shown)
VH: EVHLQQSGAELVKPGASVKLSCTASGFNIRDTYIHWVKQRPEQGLEWIGRLDPANGHTKYGPNFQGRATMTSDTSSNTAYLQLSSLTSEDTAVYYCARGAYYYGSSGLFYFDYWGQGTTLSVSS
VL: DVQITQSPSYLATSPGETITINCRASKSISKYLAWYQEKPGKTNKLLIYSGSTLQSGVPSRFSGSGSGTDFTLTISSLEPEDFAMYFCQQHHEYPLTFGAGTELELK
notes: Whole murine monoclonal antibody purified from a hybridoma; a murine IgG1 (9G4) serves as its isotype control; also called m1613F12; monoclonal antibody 1613F12 derived from the hybridoma I-4505
IC50 (read off the curve) [1]: ~0.02 µM
binding result [2]: no binding (tested: log -7.5 M)
